Data reported in article PMC3008546 (Structure (London, England : 1993), 2010).

B1: XRCC4 1-161 (domain or fragment, human, UniProt Q13426 1-161, looked up)
chain: MERKISRIHLVSEPSITHFLQVSWEKTLESGFVITLTDGHSAWTGTVSESEISQEADDMAMEKGKYVGELRKALLSGAGPADVYTFNFSKESCYFFFEKNLKDVSFRLGSFNLEKVENPAEVIRELICYCLDTIAENQAKNEHLQKENERLLRDWNDVQGR
B2: full-length XRCC4 (natural protein, human, UniProt Q13426 1-336, looked up)
chain: MERKISRIHLVSEPSITHFLQVSWEKTLESGFVITLTDGHSAWTGTVSESEISQEADDMAMEKGKYVGELRKALLSGAGPADVYTFNFSKESCYFFFEKNLKDVSFRLGSFNLEKVENPAEVIRELICYCLDTIAENQAKNEHLQKENERLLRDWNDVQGRFEKCVSAKEALETDLYKRFILVLNEKKTKIRSLHNKLLNAAQEREKDIKQEGETAICSEMTADRDPVYDESTDEESENQTDLSGLASAAVSKDDSIISSLDVTDIAPSRKRRQRMQRNLGTEPKMAPQENQLQEKENSRPDSSLPETSKKEHISAENMSLETLRNSSPEDLFDEI
B3: XRCC4 1-140 (domain or fragment, human, UniProt Q13426 1-140, looked up)
chain: MERKISRIHLVSEPSITHFLQVSWEKTLESGFVITLTDGHSAWTGTVSESEISQEADDMAMEKGKYVGELRKALLSGAGPADVYTFNFSKESCYFFFEKNLKDVSFRLGSFNLEKVENPAEVIRELICYCLDTIAENQAK

Tests used:
SAXS = molecular target: the molecule itself; test: SAXS
SEC-MALS = molecular target: the molecule itself; test: SEC-MALS

Protein | stoichiometry N (SAXS) | stoichiometry N (SEC-MALS)
B1 | 2 | –
B2 | – | 4
B3 | 2 | –
